Reference: US20110207677

Target: T1, L-TAT-IB1(s)
T1 chain: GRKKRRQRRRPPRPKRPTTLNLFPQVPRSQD

B1: Recombinant and non activated JNK3 (protein)
chain: MSLHFLYYCSEPTLDVKIAFCQGFDKQVDVSYIAKHYNMSKSKVDNQFYSVEVGDSTFTVLKRYQNLKPIGSGAQGIVCAAYDAVLDRNVAIKKLSRPFQNQTHAKRAYRELVLMKCVNHKNIISLLNVFTPQKTLEEFQDVYLVMELMDANLCQVIQMELDHERMSYLLYQMLCGIKHLHSAGIIHRDLKPSNIVVKSDCTLKILDFGLARTAGTSFMMTPYVVTRYYRAPEVILGMGYKENVDIWSVGCIMGEMVRHKILFPGRDYIDQWNKVIEQLGTPCPEFMKKLQPTVRNYVENRPKYAGLTFPKLFPDSLFPADSEHNKLKASQARDLLSKMLVIDPAKRISVDDALQHPYINVWYDPAEVEAPPPQIYDKQLDEREHTIEEWKELIYKEVMNSEEKTKNGVVKGQPSPSGAAVNSSESLPPSSSVNDISSMSTDQTLASDTDSSLEASAGPLGCCR
- JNK3 phosphorylation of Elk1 (solid phase kinase assay): a marked exception was the absence of TAT-IB(s) inhibition of JNK3 phosphorylation of Elk1
